Test results taken from the DeepSol protein solubility set.

Experiment: soluble on expression in E. coli; label from the status in PepcDB or PDB records

Sequence	soluble on expression in E. coli
MGSDKIHHHHHHMTLHKICILGGTGFVGRHLAERLSQKGHAVRILTRNRERHRENLLVLPGVELIEANVHDPVALKKQLAGRDVVINLVGILNERHQGDFDRNHVELPRLVVGACNDLGIPRLLHMSALGASPTGPSAYLRSKGTGEEIVRQSNGNRAEMGRFDDLEEPMPLWSHGLKTTSFRPAVIFGEGDSFFNRFAGLLRRIPFFIPLARSKARMQPVWIEDVVSAYVQSMDDEKTYGQAYDLCGPKVYTLGELVAYTQSLIGTRRVIVPLGDFAGNLQASIMERLPGKVLTRDNLLSLSIDSVCTRNDLAESFQIEATSVESIVPGYLGGKGARAERLAEIRNRRS	not soluble
MGSDKIHHHHHHMTNAVYTLIVRALSGIVSERAAETLLRAALREQGLTAEGVTAGEMQRVLSGPLLTRLSGVLPPERARAELGNLAAQLQKHYPKAPTLFSSPAATWDETTSTHWEDIDFSADDFEFDDPEYTATPPERQYALGTAAGQEALIQDLGRIPGVQGVMVCRASGEVLRERALSGSRNLSSVIAATALLFQKRALNLMSADMGGQTVCMRPVGAYCVAVVAGPQVNIGRLLAELQQVREAA	not soluble
MGSDKIHHHHHHMTNLLEASIEQAGYTSRKKVLTDVFLEVRKGELVGLIGANGAGKSTAIKAILGLSEDFKGHIAWNDCSFAYIPEHPSFYEELTLWEHLDLISTLHGIEESEFAHRAQSLLQTFSLDHVKHELPVTFSKGMQQKLMLIQAFLSKPDMYVIDEPFIGLDPISTKRFVDMLKAEKERGAGILMCTHVLDTAEKICDRFYMIEKGSLFLQGTLKDVQDKTGLEGQSLLDCFYKAVQGDRL	not soluble
MGSDKIHHHHHHMTPADNEIAEQQNFVDFNSILYTPQYAAGCFGLTTRRLMAIEEEHGLDIKRIKRGSSTSRVYTASDLFNIAALRRSLGHLKPIGRQIVASTFVPKGGTAKTTTAVNLAISAQFAGIKTLIIDNDPQGDTSNMLGYDPDLSPDDLVDMNIPSDRLVDGHFGNLLSPLLRMKPFSEKVLADVIKKPFGENGIHLIPADTYLEDLAVALDASNNSDMWYARFIEDANAGKVPGCDLSVYDLIIIDNAPAGSRLTKNSVAASDLLLCPVRMDKFSFRALLRLHEWCARFAKEYSYAPALMAIPTMFIRKRARLLANLQSLNTLFPGQVTEEKIYFSEDYSKSLDDGIPLMLWKRANSQTIDTARLVFGEILQKIRSLAA	not soluble
MGSDKIHHHHHHMTPEMYADKYREYASAMPTFQKSIFDQNPIYKIASGPDGNKPIERVKWTKDFLKAFSRYRQPGINAMDLHFYNWNIEHESDTPTDFGEDDWYRVINGTRELDQIINQQADLIKEGLQNIPQPESSLDHRLDRIDLVVGEWGNWHRTAFTAKPALKQQVTMRDAISTALMLDILQKNSDKVTMACVAQTINVLNALILTEGDQTILTPNYDVFMMYKAHRGNSALKIQTNQDQKNVYTFASKKDGEIILDVINANLNDQVKLTVELNREIESISKDFLQSDRPTDFNSSDNPDLIRMQQTEVKDFSKGEITLELSPASVNVFHIKTID	not soluble
MGSDKIHHHHHHMTPSTPTLATRWEPLPPRVVAELLGPSSARWWLSGGVALDHWLGTNTREHDNIDVSTTIADLPQVVQDLPAPFSAWAPSGDGVVPWAEADMDADLQPIRIHDDATGAWVMQVDVEDGTDSLWVYRRDPRLQLPWDRAVIDVDGIPTGAPEVQLVWKALRPRPEDDADKDAVLPELSNEARAWWEHAILTIHPHSSWSIHVRTPFAPGKASWNRTRR	not soluble
MGSDKIHHHHHHMTQALTKQVIFDEFIDWLPENSEGRYELHDGVIVEMPKPSGKHSNVIGFLIEELFLSIIQIGKRGIWTIPRESIVKPNSKSGYEPDIIVLDQEALSNEPRWERESIIENPASVKLIVEVVSTAVASSRETRPTHCLTNWRDDYYKKRADYVRVASRREEMGIPEYWIVDYAGLGGRAFIGNPKQPTISVNYLIEGEYQVSQFRQGERIQSVTFPELDLTVDQIFQVG	not soluble
MGSDKIHHHHHHMTQNVIEMKEITKKFGDFVANDHINLTVEKGEIHALLGENGAGKSTLMNMLAGLLEPTDGQIFINGQPVTIDSPSKSSQLGIGMVHQHFMLVEAFTVAENIVLGNETTQNGVLDIKTAAKEIKELSEKYGLSVNPNAKISDISVGAQQRVEILKTLYRGADILIFDEPTAVLTPSEIKELMTIMKSLVKEGKSIILITHKLDEIRAVADKVTVIRRGKSIETVPVAGASSQQLAEMMVGRSVSFRTEKKEANPTDIILSVKDLVVEENRGGVLAVKNLSLDVRAGEIVGIAGIDGNGQSELIQAITGLRKVTSGQIVIKGKDVTKFSSRQITELSVGHVPEDRHRDGLVLDMTMAENLALQTYYKEPLSHKGILNFAKIKEYARQLMTEFDVRGAGEHVLARGFSGGNQQKAIIAREVDRDPDLLIVSQPTRGLDVGAIEYIHKRLIEERDKGKAVLVVSFELDEILNLSDRIAVIHDGKIQGIVKPDQTNKQELGILMAGGKIEKEERDV	not soluble
MGSDKIHHHHHHMTREYGTGEIFHQMGDRVDALHYVLEGHVVAKAVTPEGVERYVLGFLPGTIFGQSPFFNRAPAETLFVSVGHTVAVALGRDYIYGEVAQRHPSLLLNLLESDAYRHRVFGRHIADATLRDLETRLCRFILHLVTEASDPVPVEQALTDAAAEVHPRTGDEGAEGPADCPARCHSGASALFSHPGLTHEDVARYLGLHRVTVSNLLGGLRRAGVLGQFNRKVIEVCDGAELVARAGMSGDGDRWP	not soluble
MGSDKIHHHHHHMTSARRQLIDANATPFYHVINRCVRRAFLCGEDKLTGRSYEHRRGWIVDKIKVLSSIFCIDICAYAVMNNHYHLVLKINVEKAKSLSQREIISRWCQITKGHAVATKYMNGDVLIDGEIMLLDALLAEWHERLSSVSWFMRCLNEEIARKANREDECKGAFWEGRFKSQALLDEQALLACMMYVDLNPIRAGVADSLQSSDFTSIQERISLLNLQRDAFTSLKTQVKSVNKLPQIIHQSLAKFDGPTHQSQQTGIPFHFADYLELIDWTGRAIRLDKKGYIDNQRPKLLHELGIASDAWLTSAKEFRRQYSGISGRWDSMCEFKKQHNSGKWCKGKASSQALHP	not soluble
MGSDKIHHHHHHMTSFNSNELQKLYIAFFGRPCDPAGMNYWLSKSEDKANLIDVAKAFSSQEEYKKSLTSVNSIEFQINQIYLNLFARKADFDSLNTWSLKCKRGELKIYELASMLTIEQSNIEEKIDNISLKDVEVLEKKVQAAQLFTDQISKDICWINAYKPDSIDPWILGKALQVGINYLNKVDSSYHLDKYAVTEILHKMSFEKINTSTKAIIKIRNLSLTIPISFKHDQKLSNLLTKGVLNSIIGGQLVKNKTTTKIEALRNINLTIMNGERVALIGHNGSGKTSFLKVISGIYLPTEGDLDVEVDVYPMLQKSFLTSTDLTGVDAAKAHYLLVNKSLNGFDQFLQDIIEFSGLGEFISLPIKTYSEGMSARLIFSILTSIPHDCLAIDEGFGTGDSDFFERAEKRMKSFMNSSGTLILASHSEHLLKQFCTRGIVFNHGQVVYDGSLDASLNYYHTHDYIHSNDN	not soluble
MGSDKIHHHHHHMTSHRAEFPIKLRFLFEPARYKILYGGRGGAKSWGVARALLIQAAATPLRILCVREFQNSIVESVHHLLKAQIEAIGLNSFYEVHNNVIRGINGSEFIFAGLHSNVTRIKSFEGVDRVWVEEAQTVSKTSWDTLIPTIRKEGSEIWVTYNPELNTDETHQRFVVNPPAGAVVVKINWNDNPWFPEILRREKDGLKARDPDAYQNVWEGNCRVTLEGAVYAKELRLAQEEGRIRSVPYDEAKPVHTFFDLGWADNTSIWFAQTVGNELRLIDYYSNSQMPIQHYIGVLQNKGYMYGTDWLPHDARARTLATGRSVEEIMLAAGRKVRIVPNLSIHDGINAARTIFPRCYFDEQNCAEGLQSLRHYRFDVDRDSGQFSARPLHDYHSHAADAFRYFAMAIEEDKPAASARGINMKGWRA	not soluble
MGSDKIHHHHHHMTSPCPQILWNMTRKCNFSCHYCYFPHDNSPVSDSLPVAALLDFLRSRGGEWLVGLTGGEPFIYPYFVDICSAIAAEHRIGIDTNLSVTPVVKRFARHVPPDRVHDIYAALHIEERERRGAVDAFIRNYHTLAGRGFTVKVNYVVHPSLVQRFAADCEFFGRHGIPLTPRPFKGVYEGRRYPEGYGSTAAAIFTQHPEAGRKTVFNFHGVPCHGGHTFLRMEPDGTVLRCPGDKTVLGNVLSGTVQTESGPTPCRMHRCPCQGVEHILPDAAQQDFIEGVRAYVVGDLPAAQRAFTAAHSRAPAMTQAANNAGVAAFAAGDAQAAACCFARAAADDPVTPLYAANLKLARRAAQPSPPSGTENETPELSLAVNYQRTGN	not soluble
MGSDKIHHHHHHMTSYRIGIDVGGTHTDAVLLDETNQVMAETKAPTTEDVSRGIYQAMRDVIESAQVDRTRIDYAMLGTTHCTNAIVERKRLNTVGIIRIGAPATLAVKPLIGVPDDLRTLLGKHVYIVSGGHEFDGREIASLDEDHLYEIAHEIKGAVDSVAITSVFSPVSDNHEVRAAEIIREILGEAIPISLSKEIGSVGLLERENATILNASVVNVAQATAEGFVAALKEEGIEANVFFGQNDGTLMSVEYAKKYPILTIACGPTNSLRGASFLTGKENAIVVDVGGTTTDIGVLAQSFPRESSLAVEIGGARTNFRMPDLVSIGLGGGTIIRVNETDGTFTIGPESVGYRLPEKGLVFGGDTLTTTDVVVALGRANIGDRSKVAHLDKELLRRIYDRMVEMVEMAVDQMKTSSGDAPVILVGGGSILLPDQLRGASEVMKPEHLGVANAIGAAIAQVSGQIERVFSLDERGREQTLAYAKDLAREEAIKAGADPSDLTIVDVEDVPLAYLPGNATRIRVKAAGPLGSASAEQYEKGNVIP	not soluble
MGSDKIHHHHHHMTTIHVSDLSKTYGTDTNVPVLSGVSFDLTSPAIHGLIGANGVGKTTLLRILAGQSRCEGVVEVDGQPAFDNPEVMDRCVLMGIDVPLPSTWRGTKLLSFAQHRYPRWDEARCAQLIDAFQVPVDKPYQSLSRGQKSALGIIIAFSATCDITLLDEPYLGLDVANRDLFYRELRAEQARCPRLIILSTHHINEASHVFDSVMVLKKDGVALQGDVESITGRVVELVGPKATIEGFVSHPARRIGEVHTAGGVAKVLAEARAEEWDQLSALGLRTHEVSLERAVMFLECD	not soluble
MGSDKIHHHHHHMTTIPSTAEAKLEMLTTINRAIAGSRPEALPPYPVPAPLSRAEILHQFEDRILDYGAAYTHVSAAELPGAIAKALGNARRVIVPAGIPAPWLTVGMDVLRDEPPLSHAELDRADAVLTGCAVAISETGTIILDHRADQGRRALSLIPDFHICVVREDQIVQTVREGVEAVAASVREGRPLTWLSGGSATSDIELVRVEGVHGPRRLQVIVVG	soluble
MGSDKIHHHHHHMTTLDRKIDFTVILSVTKANPNGDPLNGNRPRQNYDGYGEISDVAIKRKIRNRLQDMGESIFVQSNDRNLDGYASLRDRAEANDTIKKLMKTKNASDQVAAEACATWMDVRAFGQVFAFKGDKAGGVSVGVRGPVSIHTATSVAPIDVTSMQITKSVNSESGKERGSDTMGMKHRVDHGVYVFNGSINTQLAEKTNFTQEDAEKFKLALVSLFENDASSARPEGSMEVHKVYWWEHDSKLGRFSSAKVHRAVSVQALTDEPKSFLDYEIKVDALEGFTPEILDGL	not soluble
MGSDKIHHHHHHMTTSYAKIEITGTLTVLTGLQIGAGDGFSAIGAVDKPVVRDPLSRLPMIPGTSLKGKVRTLLSRQYGADTETFYRKPNEDHAHIRRLFGDTEEYMTGRLVFRDTKLTNKDDLEARGAKTLTEVKFENAINRVTAKANLRQMERVIPGSEFAFSLVYEVSFGTPGEEQKASLPSSDEIIEDFNAIARGLKLLELDYLGGSGTRGYGQVKFSNLKARAAVGALDGSLLEKLNHELAAV	not soluble
